Test results from the nanobody polyreactivity screen of Harvey et al. (2022).

experiment: yeast display, Sf9 membrane polyspecificity reagent, FACS + sequencing; frameworks hold sequencing errors
Method in brief: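 Synthetic nanobody libraries on Saccharomyces cerevisiae BJ5465 were galactose-induced for 36–48 hours, stained 1 hour at 4 °C with 10% biotinylated, detergent-solubilized Sf9 membrane reagent and enriched on streptavidin microbeads. FACS then separated cells into low and high (top ~1%) gates by anti-HA (expression) and streptavidin (reagent binding) fluorescence. Genes were colony-PCR amplified, MiSeq 2 × 250 sequenced and CDR-length filtered. A clone's polyreactivity label is that of its gate of origin.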

Sequence	polyreactivity (PSR sort gate)
QVQLVESGGGLVQAGCSLRLSCAASGFILTYYLMGWYRQAPGKERELVAAILSGGNTYYADSVKGRFTISRDNAQNTVYLQMNCLKPEDTAVYYFNARPRWSYGLDYWGQGTQVTVSS	high polyreactivity
QVQLVESGGGLVQAGGSLRLSCAASGYTFRSYAMGWYRQAPGKEREFVASISSSGGSTYYADSVKGRFTISRDNAKNTVYLQMNSLKPEDTAVYYCAASVGSYPYDEYDYWGQGTQVTVSS	low polyreactivity
QVQLVESGGGLVQAGGSLRLSCAASGRTFRTNAMGWYRQEPGKERELVASITWRGDSTYYADSVKGRFTISRDNAKNTVYLQMNRLKPEDTAVYYCAAGGFYWGYLWGRYDYWGQGTQVTVSS	high polyreactivity
QVQLVESGGGLLQAGGSLRLSCAASGFTISYNVMGWYRQAPGKERELVAAITYSGGSTYYADSVKGRFTISRDNAKNTVYLQMNSLKPEDTAVYYCAAENGMPMDYWGQGTQVTVSS	low polyreactivity
QVQLVESGGGLVQAGGSLRLSCAASGRIFRSNAKGWYRQAPRKERELVAAISGGGSTYYADSVKGRFTISRDNAKNTVYLQMNSLKPEDTAVYYCAAGRHLAYWSRDYYYWGQGTQVTVSS	high polyreactivity
QVQLVESAGGLVQAGGSLRLSCAASGSIFGSNAMGWYRQAPGKERELVASITSSGGSTHYADSVKGRFTISRDNAKNTVYLQMNSLKPEDTAVSYCATRAYGYYRWLYDYWGQGTQVTGSS	low polyreactivity
QVQLVESGGGLVQAGGSLRLSCAASGNTLDWYAMGWYRQAPGKERELVAAISSAGSTSYADSVKGRFTISRDNAKNTVYLQMNSLKPEDTAVYYCNVDVYSKDANFQSFASEYDYWGQGTQVTVSS	low polyreactivity
QVQLQESGGGLEQAGGSLRLSCAASGNISSWYPMGWYRQAPGKEREFVATIAPVATTNYADSVKGRFTISRDYAKITVYLQMNSLKPEDTAVNYCAAGPDNNDFYSYWGQGTQVTVSS	low polyreactivity
QVQLVESWGGLVQAGGSLRLSCAASGRTFRRNAMGWYRQSPGKERELVATISSSGGRTYYADSVKGRFTISRDNAKKTVYLQMNSLKPEDTAVYYCIKALRSYPLFYFWVQGTQVTVSS	high polyreactivity
QVQLVESGGGLVQAGGSLRLSCAASGRTFTTNAMGWYSQARGKERELVAAINSGGSTNYADSVKGRFTISRDNAKNTVYLQMNRLKPEDTAVYYCAKRQRDYSSVFEVDYWGQGTQVTVSS	low polyreactivity
QVQLVESGGGLVQAGGSLRLSCAASGRTFWYYTMGWYRQAPGKERELVASITSGSGTTYYADSVKGRFTISRDNAKNTVYLQMNSLKPEDTAVSSCAAKNTPSFFYYDRYDYWGQGTQVTVSS	low polyreactivity
QVQLEESGGGLDQAGGSLRLICAASGSIFPSYAMGWYRQAPGKERELVATIGRGGTTNYSDSVKGRFTISRDNAKITVYLLMNSLKPEDTAVYYCNADRIWRYKYGYDYWRQGTQVTVSS	high polyreactivity
QVQLVESGGGLVQAGGSLRLICAASGRTFKRYVIGWYRQAPRKERELVATITRGGSTTYADSVKGRFTISRDNAKNTVFLQMNSLKPEDTAVYYCIADLYQVYLSDYWGQGTQVTVSS	high polyreactivity
QDQLVESGGGLVQAGGSLRLSCAASGSNFSWNDMGWYRQAPGKERELVAAITSDDTSTYYADSVKGRFTISRDNAKNSVYLQMNSLKPEDTAVYYCAADYGNPFDYWGQGTQVTVSS	low polyreactivity
QVQHVESVGGLVQAGGSLRLSCAASGRTLKKNAMGWYRQAPGKERELVAAISTGGRTYYADSVKGRFTISRDNAKNTVYLQMNSLKPEDTAVYYCNFQFLSWSTIWGNDYWGQGTQVTVSS	high polyreactivity
QVQLVESGGGLLQAGGSLRLSCAASGSTFPSYAMGWYRQAPGKERELVAAINSGGGTNYADSVKGRFTISRDNAKNNVYLQMNSLKPEDTAVYYCAKSRYDYTKTDGGYWGQGTQVTVSS	low polyreactivity
QVQLVESGGGLVQAGGSLRLSCAASGSIFDGYAMGWYRQAPWKERELVAAISYTGGRKYYADSVKGRFTISRDNAKNTVYLQMNSLKPEDTAVYYCAARYHLGRSPRYYRGQGTQVTVSS	high polyreactivity
QVQLVESGGGLVQAGGSLRLSCAASGLNFYRYPMGWNRQAPGKERELVAAITRNGGSTYYADSVKGRFTISRDNANNTVYLQMNSLKPEDIAVYYCAADLYSAVYFSRWSDYWGQGTQVTVSS	high polyreactivity
QVQLVESGGGVVQAGGRLGLSCAASGSTFSQNPMGWYRQAPGKERELVASISSGGSTHYADSVKGRFTISRDNAKNTVYLQMNSLKPEDTAVYYCTTDLPNYVPFIVVEAYNYWGQGTQVTVSS	low polyreactivity
QVQLVESGGGLVQAGGSLRLSCAASGFIFTYYAMGWYRQAPGKERELVAAITVRGGSTYYADSVKGRFTISRDNAKNTVYLQMNSLKPEDTGVYYCNTVHGLWRRYNYWGQGTQVTVSS	high polyreactivity
QVQLVESGGGLVQAGGSLRLSCAASGSTFGKYAMGWYRQAPGKERELVATITVSGGNTNYADSVKGRFTISRDNAKNTVYLQMNSLKPEDTAVYYCAARNYVAGHKYIMNYWGQGTQVNVSS	low polyreactivity
QVQLVESGGGLVQAGGSLRLSCAASGSTFTRNAMGWYREAPGTERELVAAISFSGGSTYYADSVKGRFTISRDNAKNTVYLQMNSLKPEDTAVYYCATKVEYRYYYWGQGTQVTVSS	high polyreactivity
QVQLVESGGGLVQAGGSLRLSCAASGSTLRGNAMGRYRQAPGKVREFVAAISSSGGRTYYADSVKGRFTISRDNAKNTVNLQMTSLNPEDTAVYYCAAARYQYYFSSVPRAYYYWGQGTQVTVSS	high polyreactivity
HVQLVEAGGGLVQAGGSLRLSCAASGSTLQYYAMGWYRQAPGKERELVAAITSTGSRTYYADSVKGRFTISRDNAKNTVYLLMNSLKPADTAVYYCAADIYDGEYDYWGQGTQVTVSS	high polyreactivity
QVQLVESGGGLVQAGGSLRLSCAASGITFQRYAMGWYRQAPGKERELVAAITRRGGSTYYADSVKGRFTISRDNAKNTVYLQMNILKPEDTAVYYCAADLFFKARGYDYWGQGTQVTVSS	high polyreactivity
QVQLVESAGGLVQAGVILRLSCPASGSTIEYYAMGWYRQAPGKERELVATISIDGRTNYADSVKGRFTISRDNAKNTVYLQMNSLNPEDTAVYYCAARPYWRHRYDYCGQGTQVTVSS	low polyreactivity
QVQLVESGGGLVQAGGSLRLSCAASGFIFRNYAMGWYRQAPGKERELVAVISQRGGSTYYADSVKGRFTSSRDNAKNTVYVQMNSLKPEDTAVYYGAKRKDYNRRGYDYWGQGTQVTVSS	high polyreactivity
QVQLVETGGGLVQAGGSLRLSCAASGIIFYGYAMGWYRQAPGKERELVAAITYSGGSTYYADSVKGRFTISRDNAKNTVYLQMNSLKPEDTAVYYCRYDIWVWWSGAYDYWGQGTQVTVSS	low polyreactivity
QVQLVESGGGLVQAGGSLRFSCAASGRIFWYYVMGWDRQAPGKEREFVASISSGGSTYYADSVKGRFTISRDNANNTVYLQMNSLKPEDTAVYYCNAYVYGQRVWYDYWGQGTQVTVSS	high polyreactivity
QVQLVESGGGLVQAGGSLRLSCAASGYISYYYAMGWYRQAPGKEREFVAGISWSGGSTYYADPVKGRFTISRDNAKNTVYLQMNSLKTEDTAVYYCAARLSRWWPPTRVHYTDRYYWGQGTQVTVSS	high polyreactivity
